# Test results from article PMC4471349.
# Target: pVP28-Agα1p displayed on the cell surface of P. pastoris (white spot syndrome virus (WSSV))
# Test: yeast agglutination; two yeast clones mixed in PBS with 1% BSA at initial OD600 = 0.7, left to stand 1 h; percent agglutination from the fall in OD600; cells induced with methanol 24-96 h
substance,measurement,value
mPmRab7-Agα1p displayed on the cell surface of P. pastoris (domain or fragment),percent agglutination (48 h induction),38%
same,percent agglutination (longer induction times),20%
